For this test, the target named is T1, Aβ aggregates in human Alzheimer's disease brain (Homo sapiens (endogenous, Alzheimer's …, UniProt P05067)).
T1 construct: Aβ peptide of the amyloid precursor protein, aggregated in patient brain; also called Alzheimer's brain lysates; Aβ plaques; source: endogenous, human Alzheimer's disease brain (hippocampus homogenates; paraffin-embedded frontal cortex sections)
Description: immunostaining of cells or tissue; immunohistochemistry of paraffin-embedded frontal cortex of Alzheimer's disease patients with moderate cerebral amyloid angiopathy; Digoxigenin-tagged antibody applied 1 h; HRP polymer, DAB. As to conditions: one partner purified.

Results on one molecule are retold here after PMC12554751 (Frontiers in Immunology, 2025).

B1: 97A34 tagged with Digoxigenin (antibody, V domains shown)
VH: EVQLVESGGGLVQPGGSLRLSCAASGYNIKATYIHWVRQAPGKGLEWVARIYPASGATRYADSVKGRFTISADTSKNTAYLQMNSLRAEDTAVYYCARDGYDGSYFVGYDYNDFYDYWGQGTLVTVSS
VL: DIQMTQSPSSLSASVGDRVTITCRASQNVAYAVTWYQQKPGKAPKLLIYSASFLYSGVPSRFSGSRSGTDFTLTISSLQPEDFATYYCQQHSTYPPTFGQGTKVEIK
notes: heavy chain constant region; light chain constant region; Detected with a Human-on-Human HRP-Polymer kit through mouse anti-Digoxigenin; I surmise the human IgG1 kappa form
With B1, the binding result is “binds”.
